Test results taken from patent US11278600B2, “Human alpha-galactosidase variants” (Codexis, Inc., priority 2014, dated 2022).
Residue numbers refer to the chain shown, from its start.

B1: 407 (protein)
chain: LDNGLARTPTMGWLHWERFMCNLDCQEEPDSCISEKLFMEMAERMVSEGWKDAGYEYLCIDDCWMAPQRDSEGRLQADPQRFPHGIRQLANYVHSKGLKLGIYADVGNKTCAGFPGSFGYYDIDAQTFADWGVDLLKFDGCYCDSLENLADGYKHMSHALNRTGRSIVYSCEWPLYMWPFQKPNYTEIRQYCNHWRNFADIDDSWKSIKSILDWTSRNQERIVDVAGPGGWNDPDMLVIGNFGLSWDQQVTQMALWAIMAAPLFMSNDLRHISPQAKALLQDKDVIAINQDPLGKQGYQLRKGDNFEVWERPLSGDAWAVAIINRQEIGGPRSYTIPVASLGKGVACNPACFITQLLPVKRQLGFYNWTSRLKSHINPTGTVLLQLENTMQMSLKDLL
modifications: Synthetic Polypeptide sequence of Variant No. 407 of mature Human GLA
B2: 409 (protein)
chain: B1 chain with H158L, R165H
modifications: Synthetic Polypeptide sequence of Variant No. 409 of mature Human GLA
B3: 410 (protein)
chain: B1 chain with H158L, R162H
modifications: Synthetic Polypeptide sequence of Variant No. 410 of mature Human GLA
B4: 408 (protein)
chain: B1 chain with H158L, S166R
modifications: Synthetic Polypeptide sequence of Variant No. 408 of mature Human GLA
B5: 362 (protein)
chain: B1 chain with R44C, H158L
modifications: Synthetic Polypeptide sequence of Variant No. 362 of mature Human GLA
B6: 411 (protein)
chain: B1 chain with H158L, S166A
modifications: Synthetic Polypeptide sequence of Variant No. 411 of mature Human GLA

Columns and labels:
Assay type in all cases: biochemical
[1] = HTP-analysis of supernatants pretreated with acid (MUGal hydrolysis); details: activity of the variant/activity of Rd4BB (SEQ ID NO: 15); challenge at pH 3.7
How it was run: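 Yeast INVSc1 supernatant, GLA variants; acid challenge: McIlvaine pH 3.3-4.3, 37° C., 1-3 h. Assay: MUGal in McIlvaine pH 4.8 plus citrate pH 4.3, 37° C., 30-180 min, Na2CO3 stop, Ex 355/Em 448 nm.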

[2] = HTP-analysis of supernatants pretreated with base (MUGal hydrolysis); details: activity of the variant/activity of Rd4BB (SEQ ID NO: 15); challenge at pH 9.65
How it was run: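 Fluorescence of released 4-MU (Ex 355 nm, Em 448 nm) after carbonate quench reports MUGal hydrolysis by GLA variants secreted from INVSc1 yeast. Before the acidic (pH 4.3-4.8) 30-180 min reaction at 37° C, supernatants had been pre-incubated at pH 7.0-9.7 for 1-18 h at 37° C.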

[3] = HTP-analysis of yeast culture supernatants, no challenge (MUGal hydrolysis); details: activity of the variant/activity of Rd4BB (SEQ ID NO: 15)
How it was run: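 GLA variants were expressed in INVSc1 yeast grown in SD-Ura broth with glucose at 30° C., and culture supernatants were collected after 66-84 h. Supernatant was mixed with McIlvaine buffer pH 4.8 and MUGal (2 mM stock) in 50 mM citrate, 200 mM KCl, pH 4.6, incubated at 37° C. for 30-180 minutes, then quenched with sodium carbonate.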

Molecule | Relative Activity of GLA Variants After Challenge at pH 3.7 [1] | Relative Activity of GLA Variants After Challenge at pH 9.65 [2] | Relative Activity of GLA Variants After No Challenge (NC) [3]
B1 | + (0.5 to 1.5 relative activity over Rd4BB (SEQ ID NO: 15)) | − (<0.5 relative activity over Rd4BB (SEQ ID NO: 15)) | + (0.5 to 1.5 relative activity over Rd4BB (SEQ ID NO: 15))
B2 | + (0.5 to 1.5 relative activity over Rd4BB (SEQ ID NO: 15)) | − (<0.5 relative activity over Rd4BB (SEQ ID NO: 15)) | + (0.5 to 1.5 relative activity over Rd4BB (SEQ ID NO: 15))
B3 | + (0.5 to 1.5 relative activity over Rd4BB (SEQ ID NO: 15)) | − (<0.5 relative activity over Rd4BB (SEQ ID NO: 15)) | + (0.5 to 1.5 relative activity over Rd4BB (SEQ ID NO: 15))
B4 | + (0.5 to 1.5 relative activity over Rd4BB (SEQ ID NO: 15)) | + (0.5 to 1.5 relative activity over Rd4BB (SEQ ID NO: 15)) | + (0.5 to 1.5 relative activity over Rd4BB (SEQ ID NO: 15))
B5 | + (0.5 to 1.5 relative activity over Rd4BB (SEQ ID NO: 15)) | + (0.5 to 1.5 relative activity over Rd4BB (SEQ ID NO: 15)) | + (0.5 to 1.5 relative activity over Rd4BB (SEQ ID NO: 15))
B6 | + (0.5 to 1.5 relative activity over Rd4BB (SEQ ID NO: 15)) | + (0.5 to 1.5 relative activity over Rd4BB (SEQ ID NO: 15)) | + (0.5 to 1.5 relative activity over Rd4BB (SEQ ID NO: 15))
